According to patent US20090263370A1, “METHODS FOR TREATING TACHYKININ-MEDIATED DISEASES WITH CHOLINESTERASE” (priority 2006, published 2009):
Values joined by “and” are separate entries in the source; they are usually repeats but may differ in a detail not shown here. Identical values can stand only once.

Legend:
[1] = test system: patients with allergic rhinitis; test: Prevention and treatment of allergic rhinitis; type: in vivo; details: 300 U glycerol solution nasal spray, 3-5 times per day for a week; a month later, in most patients
Excerpt: Acetylcholinesterase (enzyme activity 300 U) glycerol solution was sprayed to the nose of a patient, 3-5 times per day, one spray each time. The course of treatment lasted a week.

patient with tinea pedis = test: Prevention and treatment of tinea pedis; type: in vivo
Procedure: To 2 L of warm water lower than 40° C. was added 2 mL of acetylcholinesterase aqueous solution (enzyme activity 300 U), and stirred slowly. The feet of a patient were immersed in the solution for 30 minutes, two times per day for three consecutive days.

Substance P (SP) = test: Hydrolysis of Substance P (SP) by cholinesterase, flight mass spectrometry; type: biochemical; details: for first restriction site: SP C-terminal
Procedure: Hydrolysis of SP was performed by acetylcholinesterase and butyrylcholinesterase separately.
1) Butyrylcholinesterase, specific activity 200 U, 50 mg of dry powder was dissolved in 5 mL of aqueous solution of iron(III) (double distilled water, Fe^+3 content, 1 mg/L) and centrifuged at 10,000 r/min for 4 minutes;
2) Butyrylcholinesterase, specific activity 200 U, 50 mg of dry powder was dissolved in 5 mL of double distilled water and centrifuged at 10,000 r/min for 4 minutes;
3) Acetylcholinesterase, specific activity 300 U, 20 mg of dry powder was dissolved in 1 mL of double distilled water and centrifuged at 10,000 r/min for 4 minutes.
SP, with purity 98%, in an aqueous solution at a concentration 0.5 μg/mL.
3. Reaction 100 μL of the substrate and 100 μL of enzyme were mixed, and the initial reaction temperature was 22° C.
Flight mass spectrometry: 1 μL of matrix (CHCA) and 1 μL of the reactant were mixed, and the mixture was directly assayed by flight mass spectrometry.

[2] = test system: patients with swelling gingivitis and pain; test: Prevention and treatment of gingivitis; type: in vivo; details: 300 U
Procedure: Patients suffered from swelling gingivitis and pain. Sterile cotton swab was wetted by acetylcholinesterase (enzyme activity 300 U) and placed on the affected area for 10 min, one or two times per day.

[3] = test system: patient who caught a cold at early stage; test: Prevention and treatment of common cold; type: in vivo; details: 200 U glycerol solution nasal spray
Excerpt: Acetylcholinesterase (enzyme activity 200 U) glycerol solution was sprayed to the nose of a patient who caught a cold at early stage, 3-5 times per day, one spray each time. Within an hour, symptoms such as headache and fever disappeared. Three days later, other symptoms disappeared, and overall wellbeing of the patient recovered to normal.

[4] = test system: patients with wound caused by trauma, burn or scald; test: Prevention and treatment of trauma and inflammation; type: in vivo; details: enzyme activity 300 U, sprayed 1-3 times directly onto wound
Excerpt: Acetylcholinesterase (enzyme activity 300 U) was sprayed 1-3 times directly onto a wound. If necessary, gauze pretreated with acetylcholinesterase may also cover the wound. […] Pains disappeared. If the wound was not already inflamed, inflammation was not observed, the wound recovered naturally, and a week later dead skin started to fall off. If the wound was inflamed, the inflammation would not develop; three days later, the wound recovered naturally. The mentioned-above wound was a wound caused by trauma, burn or scald.

Kunming mice = test: Analgesic experiment on mice by acetic acid twisting method; type: in vivo; details: for Inhibition rate (%): compared with saline solution group; for Writhing number: within 15 minutes after 0.6% acetic acid i.p.
Excerpt: (§1) 1. Materials and Reagents
1) Reagents: acetic acid, manufactured by Guangdong Xinning Chemical Plant; butyrylcholinesterase (activity: 200 U per mL solution) prepared following the method of Example 2; Fenbid liniment (ibuprofen), produced by GlaxoSmithKline (China) Investment Co, Ltd., Product batch number: 04050471.
2) Animals: Kunming mice, 40, weight 20±2 g, of either sex.
Saline solution group (negative control group);
Experimental group 1, smeared with butyrylcholinesterase aqueous solution;
Experimental group 2, intraperitoneal injection with butyrylcholinesterase aqueous solution; and
Fenbid group (positive control group).
40 Kunming mice were randomly grouped with each group 10. The negative control group was administered 0.9% saline solution (0.1 mL/10 g) by intraperitoneal injection. An area of 1×1 cm of the hair of the mice of the experimental group 1 was cut in the back, and butyrylcholinesterase (enzyme activity: 200 U per mL solution) was smeared onto it. The experimental group 2 was administered 0.1 mL/10 g butyrylcholinesterase solution (enzyme activity: 200 U per mL solution) by intraperitoneal injection. An area of 1×1 cm of the hair of the mice of the positive control group was cut in the back, and Fenbid was smeared onto it. Each group of mice was fed in different cages. At 5 minutes after administration, following the method taught in Pharmacological Experimental Methodology (3rd Edition) (Xu Shuyun, et al., People's Health Publishing House, 2002, 1), each mouse was administered 0.6% acetic acid ([…]) by intraperitoneal injection, and the writhing number of mice within 15 minutes was recorded. The number was compared with that of saline solution group (0.9%) to calculate writhing inhibition rate in mice.

[5] = test system: patients with summer diarrhea; test: Prevention and treatment of summer diarrhea; type: in vivo; details: 0.5 mL of 200 U aqueous solution in 3 mL cold water, rinsed in mouth and swallowed, repeated after two hours
Procedure: To 0.5 mL of butyrylcholinesterase (enzyme activity 200 U) aqueous solution, 3 mL of cold water was added. A portion of the solution was placed into the mouth of a patient, and lightly rinsed for 5-10 minutes. Then, the solution was swallowed. Two hours later, the previous steps were repeated.

Wister rats = test: Anti-inflammatory experiment with adjuvant arthritis rats; type: in vivo
Excerpt: as §1
1) Reagents: butyrylcholinesterase aqueous solution (activity: 300 U per mL solution) prepared following the method of Example 2; Fenbid liniment (ibuprofen), manufactured by GlaxoSmithKline (China) Investment Co, Ltd., Product batch number: 04050471.
2) Animals: Wister rats, 30, weight 200±2 g, of either sex, from Laboratory Animal Center, Sun Yat-sen University.
Wister rats were randomly grouped into 3 groups with each group of 10. Following the method taught in Pharmacological Experimental Methodology (The third edition) (Xu Shuyun, et al., People's Health Publishing House, 2002, 1), each rat was administered 0.1 mL of Freund's adjuvant (FCA) in the right hindlimb by intradermal injection. After 0.5 h, the experimental group and Fenbid group were separately administered butylcholineterase aqueous solution and Fenbid in the inflammatory site of the right hindlimb, one time per day for a week. At 2 h, 6 h, 12 h, 24 h, 48 h, 72 h and 7 d after administration, the swelling degree of the right hindlimb of rats was separately measured by a vernier caliper.

[6] = intraperitoneal injection 0.1 mL/10 g, 200 U per mL

B1: Acetylcholinesterase (protein, UniProt P22303 32-614, looked up)
Acetylcholinesterase: EGREDAELLVTVRGGRLRGIRLKTPGGPVSAFLGIPFAEPPMGPRRFLPPEPKQPWSGVVDATTFQSVCYQYVDTLYPGFEGTEMWNPNRELSEDCLYLNVWTPYPRPTSPTPVLVWIYGGGFYSGASSLDVYDGRFLVQAERTVLVSMNYRVGAFGFLALPGSREAPGNVGLLDQRLALQWVQENVAAFGGDPTSVTLFGESAGAASVGMHLLSPPSRGLFHRAVLQSGAPNGPWATVGMGEARRRATQLAHLVGCPPGGTGGNDTELVACLRTRPAQVLVNHEWHVLPQESVFRFSFVPVVDGDFLSDTPEALINAGDFHGLQVLVGVVKDEGSYFLVYGAPGFSKDNESLISRAEFLAGVRVGVPQVSDLAAEAVVLHYTDWLHPEDPARLREALSDVVGDHNVVCPVAQLAGRLAAQGARVYAYVFEHRASTLSWPLWMGVPHGYEIEFIFGIPLDPSRNYTAEEKIFAQRLMRYWANFARTGDPNEPRDPKAPQWPPYTAGAQQYVSLDLRPLEVRRGLRAQACAFWNRFLPKLLSATDTLDEAERQWKAEFHRWSSYMVHWKNQFDHYSKQDRCSDL
- symptoms such as nasal obstruction, sneezing, runny nose, nose itching [1]: disappeared, without relapse
- pain (patient with tinea pedis; 2 mL of 300 U solution in 2 L warm water, feet immersed 30 minutes, two times per day, three days): disappeared
- ringworm spot, smell and other symptoms (patient with tinea pedis; one week later): all gone
- capacity of hydrolyzing SP (Substance P (SP)): has the capacity of hydrolyzing SP
- first restriction site (Substance P (SP)): between Leu^10 and Met^11
- hydrolysis of C-terminal Met^11 of SP (Substance P (SP); in water, 0-30 minutes, FIGS. 10-15): hydrolyzed quickly
- SP fragment finally left (Substance P (SP); in water, FIGS. 10-15): only a 1-5 peptide fragment was left
- relapse and side effects ([2]; cotton swab on affected area): without relapse and side effects
- inflammatory swelling ([2]; cotton swab on affected area 10 min, one or two times per day, two days later): disappeared
- symptoms such as headache and fever ([3]; 3-5 times per day, within an hour): disappeared
- other symptoms ([3]; three days later): disappeared
- pains [4]: disappeared
- wound and inflammation in patients [4]: reduced significantly

B2: Butyrylcholinesterase (protein, UniProt P06276 29-602, looked up)
Cholinesterase: EDDIIIATKNGKVRGMNLTVFGGTVTAFLGIPYAQPPLGRLRFKKPQSLTKWSDIWNATKYANSCCQNIDQSFPGFHGSEMWNPNTDLSEDCLYLNVWIPAPKPKNATVLIWIYGGGFQTGTSSLHVYDGKFLARVERVIVVSMNYRVGALGFLALPGNPEAPGNMGLFDQQLALQWVQKNIAAFGGNPKSVTLFGESAGAASVSLHLLSPGSHSLFTRAILQSGSFNAPWAVTSLYEARNRTLNLAKLTGCSRENETEIIKCLRNKDPQEILLNEAFVVPYGTPLSVNFGPTVDGDFLTDMPDILLELGQFKKTQILVGVNKDEGTAFLVYGAPGFSKDNNSIITRKEFQEGLKIFFPGVSEFGKESILFHYTDWVDDQRPENYREALGDVVGDYNFICPALEFTKKFSEWGNNAFFYYFEHRSSKLPWPEWMGVMHGYEIEFVFGLPLERRDNYTKAEEILSRSIVKRWANFAKYGNPNETQNNSTSWPVFKSTEQKYLTLNTESTRIMTKLRAQQCRFWTSFFPKVLEMTGNIDEAEWEWKAGFHRWNNYMMDWKNQFNDYTSKKESCVGL
- writhing number compared with the saline solution group (Kunming mice; either by intraperitoneal injection or by skin smearing, P<0.05): significantly decreased the writhing number
- Inhibition rate (%) (Kunming mice; [6]): 26.6%
- Writhing number (Kunming mice; [6]): 27.2 ± 9.50*Δ
- inhibition rate on writhing compared with Fenbid (Kunming mice; intraperitoneal injection, P<0.05): higher inhibition rate on writhing in mice than Fenbid
- Writhing number (Kunming mice; smeared onto 1×1 cm cut area of the back): 29.9 ± 5.17
- Inhibition rate (%) (Kunming mice; smeared onto the back, 200 U per mL): 24.0%
- number of the patients with summer diarrhea [5]: decreased greatly
- Swelling degree of the right hind limb of rats (Wister rats; 2 h after administration): 0.74 ± 0.04
- Swelling degree of the right hind limb of rats (Wister rats; 6 h after administration): 0.84 ± 0.04
- Swelling degree of the right hind limb of rats (Wister rats; 12 h after administration): 0.87 ± 0.05
- Swelling degree of the right hind limb of rats (Wister rats; 24 h after administration): 0.83 ± 0.05
- Swelling degree of the right hind limb of rats (Wister rats; 48 h after administration): 0.74 ± 0.02
- Swelling degree of the right hind limb of rats (Wister rats; 72 h after administration): 0.76 ± 0.05
- Swelling degree of the right hind limb of rats (Wister rats; 7 d after administration): 0.67 ± 0.06
- swelling degree compared with the negative control group (Wister rats; at 48 h, 72 h and 7 d after administration, P<0.05): significantly decrease the swelling degree
- capacity of hydrolyzing SP (Substance P (SP)): has the capacity of hydrolyzing SP
- amount of product, with Fe^+3 (FIG. 3) compared with without Fe^+3 (FIG. 8) (Substance P (SP); 60 minutes): much more products having a molecular weight of 1104
- first restriction site (Substance P (SP)): between Leu^10 and Met^11
- molecular weight of products detected (Substance P (SP); in water without Fe^+3, FIGS. 6-9): 1217 and 1104
- molecular weight of product detected (Substance P (SP); with Fe^+3 in water, at 25 minutes): 1217
- molecular weight of new fragments detected (Substance P (SP); with Fe^+3 in water, at 60 minutes): 1104 and 900
